Laboratory results: patent US20160244728A1, “CULTURE METHOD FOR PLURIPOTENT STEM CELLS AND KIT AND MEDIUM FOR CULTURE OF PLURIPOTENT STEM CELLS USED THEREIN” (FUJIFILM Corporation, priority 2013, published 2016)

B1: RCP-1: recombinant polypeptide, human vitronectin positions 1-55 and 269-459, methionine on the N-terminal (protein)
chain: MDQESCKGRCTEGFNVDKKCQCDELCSYYQSCCTDYTAECKPQVTRGDVFTMPEDEPSQEECEGSSLSAVFEHFAMMQRDSWEDIFELLFWGRTSAGTRQPQFISRDWHGVPGQVDAAMAGRIYISGMAPRPSLAKKQRFRHRNRKGYRSQRGHSRGRNQNSRRPSRATWLSLFSSEESNLGANNYDDYRMDWLVPATCEPIQSVFFFSGDKYYRVNLRTRRVDTVDPPYPRSIAQYWLGCPAPGHL
modifications: Synthetic Peptide RCP-1
B2: RCP-11: recombinant polypeptide corresponding to the sequence of natural human vitronectin, positions 1-459 (protein)
chain: GPLGDQESCKGRCTEGFNVDKKCQCDELCSYYQSCCTDYTAECKPQVTRGDVFTMPEDEYTVYDDGEEKNNATVHEQVGGPSLTSDLQAQSKGNPEQTPVLKPEEEAPAPEVGASKPEGIDSRPETLHPGRPQPPAEEELCSGKPFDAFTDLKNGSLFAFRGQYCYELDEKAVRPGYPKLIRDVWGIEGPIDAAFTRINCQGKTYLFKGSQYWRFEDGVLDPDYPRNISDGFDGIPDNVDAALALPAHSYSGRERVYFFKGKQYWEYQFQHQPSQEECEGSSLSAVFEHFAMMQRDSWEDIFELLFWGRTSAGTRQPQFISRDWHGVPGQVDAAMAGRIYISGMAPRPSLAKKQRFRHRNRKGYRSQRGHSRGRNQNSRRPSRATWLSLFSSEESNLGANNYDDYRMDWLVPATCEPIQSVFFFSGDKYYRVNLRTRRVDTVDPPYPRSIAQYWLGCPAPGHL
modifications: Synthetic Peptide CRP-11

How the values were obtained:
[1] = Evaluation of adsorbability with respect to culture dish; format: physicochemical; details: FIG. 1; 0 to 200 pmol/cm^2 added, 2 hours at 37° C.; compared with RCP-11
Experimental: Each of the polypeptides obtained as above was diluted with a predetermined buffer such that they could be added to wells at a predetermined final concentration of 0 pmol/cm^2 to 200 pmol/cm^2. Thereafter, each of the polypeptides was added in an amount of 64 μL to a plasma-treated 96-well plate made of polystyrene (Tissue Culture-Treated, Falcon). Each of the polypeptides was allowed to adsorb onto the plate by being incubated for 2 hours at 37° C., and then the wells were washed twice with PBS, thereby obtaining surfaces coated with each of the polypeptides of RCP-1 to RCP-16.
Among the surfaces coated with each of the polypeptides obtained as above, the surfaces coated with RCP-1 and RCP-11 to RCP-16 were applied with 64 μL of a borate buffer and 64 μL of 1 N NaOH, followed by incubation for 24 hours at 80° C. and 100% humidity. After the resultant was air-cooled, 75 μL of a borate buffer was added to each well, and 50 μL of a reaction solution obtained by mixing OPA (o-phthalaldehyde: Wako Pure Chemical Industries, Ltd./methanol solution (160 mg/ml)) with N-acetyl-L-cysteine (NAC: Wako Pure Chemical Industries, Ltd.)/borate buffer solution (2 mg/ml) at a ratio of 1:100 (mass ratio) was further added thereto. After incubation for 30 minutes at 40° C., the fluorescence intensity thereof was measured by using an Envision Multilabel Counter (PerkinElmer Inc.) (excitation 355 nm/fluorescence 486 nm). A calibration curve was separately prepared from each of the polypeptide solutions so as to calculate the amount of the polypeptide adsorbed. In FIG. 1, a black rhombus indicates RCP-1, a black square indicates RCP-11, a black triangle indicates RCP-12, a black circle indicates RCP-13, a white rhombus indicates RCP-14, a white square indicates RCP-15, and a white triangle indicates RCP-16.

human iPS cells [2] = assay: Evaluation of maintenance of undifferentiated state; format: cell-based; details: for form of the iPS cell colony: FIGS. 3A to 3E, TeSR2, subcultured every six days; for maintenance of the undifferentiated state (NANOG staining): FIGS. 4A to 4E, after culture for 1 month
Experimental: iPS cells collected in the same manner as in <Cell adhesiveness evaluation 1> were suspended in TeSR2. The iPS cells were seeded into 6-well plate (Tissue culture-treated, Falcon), onto which each of the samples 1, 2, 5, 6, and 7 used in <Cell adhesiveness evaluation 1> was adsorbed in the same manner as in <Cell adhesiveness evaluation 1>, and cultured in a CO2 incubator at 37° C. Except for the day after the seeding, the medium was replaced every day. In the same method as described above, the cells were subcultured every six days. FIGS. 3A to 3E show forms of the iPS cells cultured on each of the samples.
After being cultured for 1 month under the conditions described above, the cells were immobilized using 4% paraformaldehyde and treated with 1% Triton-X/PBS so as to enhance the membrane permeability. After the cells were subjected to a blocking treatment using an Image IT Signal Enhancer (Invitrogen), an anti-human NANOG antibody (AF 1997, R&D Systems, Inc.), an Alexa Fluor 555 binding rabbit anti-goat IgG antibody (Invitrogen), and DAPI (Dojindo Molecular Technologies, Inc.) were added thereto for labeling, and the cells were imaged using a fluorescence microscope. FIGS. 4A to 4E show the fluorescence microscopic images.
FIGS. 3A and 4A show the iPS cells cultured on RCP-1; FIGS. 3B and 4B show the iPS cells cultured on RCP-11; FIGS. 3C and 4C show the iPS cells cultured on natural human vitronectin; FIGS. 3D and 4D show the iPS cells cultured on rLaminin-5; and FIGS. 3E and 4E show the iPS cells cultured on rLaminin-511. The scale bar in the images indicates 100 μm. In FIGS. 3A to 3E, the images on the left side are full images of the colony, and the images on the right side are magnified images. In FIGS. 4A to 4E, the images on the left side are images of the cells stained with DAPI, and the images on the right side are images of the cells stained with an anti-NANOG antibody. The scale bar in FIGS. 3 and 4 indicates 200 μm.

human iPS cells [3] = assay: Growth evaluation, growth curves over 8 days; format: cell-based; details: FIG. 2; 250 cells/well
Experimental: The iPS cells collected in the same manner as in <Cell adhesiveness evaluation 1> were seeded into a 96-well plate, onto which RCP-1, RCP-11, and natural human vitronectin were adsorbed, at a ratio of 250 cells/well and cultured for 8 days in a 5% CO2 incubator at 37° C. The number of adhesive cells after different days of culture was measured in the same manner as in <Cell adhesiveness evaluation 1>, thereby obtaining growth curves. […] In FIG. 2, a black rhombus indicates a case using RCP-1, and a black square indicates a case using RCP-11.

Molecule | adsorbability with respect to the plate (in words) [1] | form of the iPS cell colony (human iPS cells [2]) | maintenance of the undifferentiated state (NANOG staining) (human iPS cells [2]) | number of cells on Day 8 of culture relative to the case where RCP-1 was used (human iPS cells [3])
B1 | excellent adsorbability | form specific to undifferentiated cells | strongly expressed NANOG in the entirety of the colony | –
B2 | – | form specific to undifferentiated cells | strongly expressed NANOG in the entirety of the colony | about 1/3
